Biological target: T1, human macrophage mannose receptor (MMR) (human, UniProt P22897 19-1456)
T1 sequence (looked up): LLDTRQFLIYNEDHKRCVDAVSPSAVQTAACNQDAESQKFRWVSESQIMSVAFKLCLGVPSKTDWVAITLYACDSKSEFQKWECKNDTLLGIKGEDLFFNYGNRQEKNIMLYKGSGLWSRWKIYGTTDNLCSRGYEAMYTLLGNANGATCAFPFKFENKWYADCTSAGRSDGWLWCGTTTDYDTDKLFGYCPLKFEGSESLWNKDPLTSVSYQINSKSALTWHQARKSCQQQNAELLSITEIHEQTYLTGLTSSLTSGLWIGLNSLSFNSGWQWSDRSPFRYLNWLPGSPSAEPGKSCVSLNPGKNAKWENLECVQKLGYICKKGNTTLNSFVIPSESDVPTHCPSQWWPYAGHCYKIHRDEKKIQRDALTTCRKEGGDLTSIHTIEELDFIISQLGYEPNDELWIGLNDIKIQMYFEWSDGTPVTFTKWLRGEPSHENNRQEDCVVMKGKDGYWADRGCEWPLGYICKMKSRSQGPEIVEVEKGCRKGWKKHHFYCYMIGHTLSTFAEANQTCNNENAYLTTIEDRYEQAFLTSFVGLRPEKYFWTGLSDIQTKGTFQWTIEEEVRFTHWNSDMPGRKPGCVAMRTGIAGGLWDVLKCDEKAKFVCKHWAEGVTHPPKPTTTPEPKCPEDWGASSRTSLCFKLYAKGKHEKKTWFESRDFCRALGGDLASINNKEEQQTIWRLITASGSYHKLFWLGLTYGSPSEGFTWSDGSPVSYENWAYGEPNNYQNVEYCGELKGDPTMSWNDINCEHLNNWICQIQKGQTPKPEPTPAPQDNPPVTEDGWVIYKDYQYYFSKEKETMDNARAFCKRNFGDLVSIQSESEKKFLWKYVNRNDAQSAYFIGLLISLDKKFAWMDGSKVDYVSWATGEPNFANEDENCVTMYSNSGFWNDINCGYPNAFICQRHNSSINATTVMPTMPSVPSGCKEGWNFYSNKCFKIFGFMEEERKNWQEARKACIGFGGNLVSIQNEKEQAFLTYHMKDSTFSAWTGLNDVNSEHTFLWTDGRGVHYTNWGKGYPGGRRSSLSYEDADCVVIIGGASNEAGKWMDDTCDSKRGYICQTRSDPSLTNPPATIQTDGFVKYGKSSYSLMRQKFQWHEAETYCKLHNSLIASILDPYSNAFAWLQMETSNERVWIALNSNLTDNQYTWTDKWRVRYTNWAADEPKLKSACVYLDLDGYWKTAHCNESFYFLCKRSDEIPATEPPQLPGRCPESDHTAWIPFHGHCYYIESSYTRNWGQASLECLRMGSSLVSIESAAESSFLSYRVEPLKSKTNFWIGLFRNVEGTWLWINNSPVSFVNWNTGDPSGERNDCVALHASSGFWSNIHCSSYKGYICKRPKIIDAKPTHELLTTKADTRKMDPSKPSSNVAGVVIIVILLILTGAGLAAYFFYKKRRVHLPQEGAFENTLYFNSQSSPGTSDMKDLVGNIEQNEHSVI
Assay: cell-based or functional assay

B1: velaglucerase alfa (enzyme, human, UniProt P04062 40-536, looked up)
chain: ARPCIPKSFGYSSVVCVCNATYCDSFDPPTFPALGTFSRYESTRSGRRMELSMGPIQANHTGTGLLLTLQPEQKFQKVKGFGGAMTDAAALNILALSPPAQNLLLKSYFSEEGIGYNIIRVPMASCDFSIRTYTYADTPDDFQLHNFSLPEEDTKLKIPLIHRALQLAQRPVSLLASPWTSPTWLKTNGAVNGKGSLKGQPGDIYHQTWARYFVKFLDAYAEHKLQFWAVTAENEPSAGLLSGYPFQCLGFTPEHQRDFIARDLGPTLANSTHHNVRLLMLDDQRLLLPHWAKVVLTDPEAAKYVHGIAVHWYLDFLAPAKATLGETHRLFPNTMLFASEACVGSKFWEQSVRLGSWDRGMQYSHSIITNLLYHVVGWTDWNLALNPEGGPNWVRNFVDSPIIVDITKDTFYKQPMFYHLGHFSKFIPEGSQRVGLVASQKNDLDAVALMHPDGSAVVVVLNRSSKDVPLTIKDPAVGFLETISPGYSIHTYLWRRQ
modifications: primarily high-mannose type N-glycans (6-9 mannose units per glycan) at Asn19, Asn59, Asn146, Asn270
In the case of B1, the “internalization rate in U937 cells relative to imiglucerase (4-MU-glc activity assay)” value is reported as no more than 2.5 fold.
